The target in this test is T1, mouse CD276-AP fusion protein (mouse, UniProt Q8VE98 29-248).
T1 construct: Coated on the ELISA plate at 2 ug/ml; not shown: AP fusion partner
T1 sequence (looked up): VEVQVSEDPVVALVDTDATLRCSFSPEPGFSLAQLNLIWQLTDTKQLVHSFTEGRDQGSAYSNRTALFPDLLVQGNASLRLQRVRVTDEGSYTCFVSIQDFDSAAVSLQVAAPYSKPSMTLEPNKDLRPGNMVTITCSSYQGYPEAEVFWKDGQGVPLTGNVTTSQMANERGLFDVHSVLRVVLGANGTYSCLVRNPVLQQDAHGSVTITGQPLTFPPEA
Put plainly: ELISA, mouse CD276-AP fusion protein coated at 2 ug/ml, serially diluted scFv-Fc culture medium, HRP goat anti-human IgG, OD 450 nm. The procedure:
50 μl of the diluted mouse or human CD276-AP fusion protein in PBS at 2 μg/ml was coated in a 96-well plate at 4° C. overnight. Transiently expressed scFv-Fc fusion protein in the culture medium was serially diluted and added into the target protein coated wells. After washing, a 1:3000 diluted horseradish peroxidase (HRP) conjugated goat anti-human IgG antibody was added for 1 hr at RT. After washing, 3, 3, 5, 5′-Tetramethylbenzidine (TMB) substrate was added, and the optical density (O.D.) was read at 450 nm.

The record followed here is US20230110875A1 (US Dept. of Health and Human Services, published 2023).

B1: Clone CD276.1 (m851) scFv-Fc fusion protein (Fc fusion)
scFv: QVQLQQSGAEVKKPGSSVKVSCKASGGTFSSYAISWVRQAPGQGLEWMGGIIPILGIANYAQKFQGRVTITADESTSTAYMELSSLRSEDTAVYYCARGGAGGSGSYYPLIWGQGTTVTVSSGGGGSGGGGSGGGGSEIVLTQSPATLSLSPGERATLSCGASQSVSSSYLAWYQQKPGQAPRLLIYDASSRATGIPARFSGSGSGTDFTLTISSLEPEDFAVYYCQQRSSWPPTWTFGQGTKLEIKR
notes: also called m851 (CD276.1); not shown: Fc-Avi tag from modified pSecTag vector
B1: the binding result is given as “no binding”.
